Target: singly biotinylated A20 zinc finger 4 (ZnF4: S592-K635) (human) (UniProt P21580)
Test: BLI

Chain of singly biotinylated A20 zinc finger 4 (ZnF4: S592-K635) (human) (P21580 592-635): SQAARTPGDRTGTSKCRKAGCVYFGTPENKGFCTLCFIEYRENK

Kd: 2000 nM
Substance: K63-linked triubiquitin (from UniProt P0CG48 1-76)
